The values below come from patent publication US20100041873A1 (ZymoGenetics, published 2010).

Changes are numbered by the printed parent chain. Several values for one entry are separate records, joined by “and”; a condition that tells them apart may be missing. Identical values can stand only once. No end group written: not given here.

Assay [1] addresses T1, Recombinant human IL-21 (human, UniProt Q9HBE4 30-162). In words: cell-based or functional assay.
For assay [2], the target named is T1, Recombinant human IL-21. In words: cell-based or functional assay. The source holds these as a separate data set.
The target in assay [3] is T1, Recombinant human IL-21. In words: cell-based or functional assay. This is another data set of the same source.
The target of assay [4] is T1, Recombinant human IL-21. In words: cell-based or functional assay. This is another data set of the same source.
The target of assay [5] is T2, Recombinant cynomolgus IL-21 (cynomolgus monkey, UniProt Q9HBE4 30-162 (human entry), limits assumed). In words: cell-based or functional assay.
In a further assay the target is Recombinant rat IL-21 (rat, UniProt A3QPB9 18-146, limits assumed). The assay is described as follows: cell-based or functional assay.
The next assay has as its target Recombinant murine IL-21 (mouse, UniProt Q9ES17 18-146). In words: cell-based or functional assay.
Assay [6] addresses T3, Human IL-21 peptide #1 (pyr30-K50) (human, N-terminal pyroGlu).
T3 construct: coated on ELISA plates; also called Peptide 1 N-Term
T3 peptide: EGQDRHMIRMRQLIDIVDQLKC
In words: direct ELISA. As for the experimental part:
(§1) Wells were blocked with 200 μL/well of Blocking Buffer (PBS-Tween plus 1% w/v bovine serum albumin (BSA)) for 1 hour, after which the plates were washed twice with Wash Buffer. Antibody dilutions were prepared in 5% fetal bovine serum (FBS)/Iscove's Modified Dulbecco's Media (IMDM) medium and adjusted to 1 μg/ml. […] Following 1 hour incubation at ambient temperature, the wells were aspirated and the plates washed twice as described above. Horseradish peroxidase (HRP) labeled Goat anti Mouse IgG, Fc specific or Goat anti Rat IgG, Fc specific, or Goat anti Human IgG, Fc specific (Jackson ImmunoResearch Laboratories, West Grove, Pa.) at a dilution of 1:5000 with 5% FBS/IMDM medium was then added to each well, 100 μL/well, and the plates incubated at ambient temperature for 1 hour. After removal of unbound HRP conjugated antibody, the plates were washed five times, 100 μL /well of tetra methyl benzidine (TMB) (BioFX Laboratories, Owings Mills, Md.) added to each well and the plates incubated for 3 minutes at ambient temperature. Color development was stopped by the addition of 100 μL /well of 450 nm TMB Stop Reagent (BioFX Laboratories, Owings Mills, Md.) and the absorbance values of the wells read on a Molecular Devices Spectra MAX 340 instrument at 450 nm.

Assay [7] addresses T4, Human IL-21 peptide #2 (N54-C71) (human).
T4 peptide: NDLVPEFLPAPEDVETNC
In words: direct ELISA. As for the experimental part: as §1
A general note: ELISA stands for enzyme-linked immunosorbent assay.

Assay [8] concerns the target T5, Hu IL-21 Peptide A1752 (conjugated to ovalbumin) (human, conjugated to ovalbumin).
T5 construct: also called peptide #4 C125-S153 conjugated to ovalbumin
The assay is described as follows: Western blot. As for the experimental part: (§2) For Western blots, the non-specific sites on the membranes were blocked with a buffer containing 20 mM Tris, pH 7.4, 0.5 mM EDTA, 0.5% IGEPAL CA-630, 150 mM NaCl, 0.25% gelatin, and 1% casein hydrolysate blocking solution (Western Blocking Reagent, Roche Diagnostics, Inc., Basel Switerzerland) (Blocking Buffer). The membranes were then incubated for 2 hrs at room temperature with purified monoclonal antibody (10 ng/ml or 100 ng/ml) in the Blocking Buffer followed by a 2 hr incubation with peroxidase conjugated donkey anti-human IgG (Jackson Laboratories, Bar Harbor, Me.). The membranes were washed 5 times with the Tris/EDTA/IGEPAL/NaCl/gelatin Blocking buffer which lacked the casein hydrolysate and developed with SUPERSIGNAL™ DuraWest Luminol/Enhancer/Peroxidase Solution (Pierce, Rockford, Ill.) for chemoluminescence detection. The blots were visualized using X-ray film based standard methods.

In assay [9] the target is T6, Hu IL-21 Peptide A1750 (conjugated to ovalbumin) (human, also: chemically conjugated to ovalbumin).
T6 construct: also called peptide #2 N54-C71 conjugated to ovalbumin
T6 peptide: NDLVPEFLPAPEDVETNC
The assay is described as follows: Western blot. As for the experimental part: as §2
(A western blot detects proteins with antibodies after separation by electrophoresis.)

For the next assay, the target named is T7, Recombinant human IL-7 (human, UniProt P13232 26-177).
T7 construct: also called Hu IL-7
T7 sequence (looked up): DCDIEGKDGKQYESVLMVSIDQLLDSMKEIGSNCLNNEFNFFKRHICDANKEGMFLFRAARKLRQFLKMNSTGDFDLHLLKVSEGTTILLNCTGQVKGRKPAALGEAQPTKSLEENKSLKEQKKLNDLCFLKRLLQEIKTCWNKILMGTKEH
In words: Western blot.

The target of the next assay is T8, Recombinant human IL-4 (human, UniProt P05112 25-153).
T8 construct: also called Hu IL-4
T8 sequence (looked up): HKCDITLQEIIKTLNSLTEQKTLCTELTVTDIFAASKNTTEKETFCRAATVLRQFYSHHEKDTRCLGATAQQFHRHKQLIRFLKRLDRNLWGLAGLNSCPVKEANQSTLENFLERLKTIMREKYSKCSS
In words: Western blot.

In a further assay the target is T9, Recombinant human IL-9 (human, UniProt P15248 19-144).
T9 construct: also called Hu IL-9
The assay is described as follows: Western blot.

The target of the next assay is T10, Recombinant human IL-2 (human, UniProt P60568 21-153).
T10 construct: also called Hu IL-2
In words: Western blot.

Another assay deals with T11, Recombinant human IL-15 (human, UniProt P40933 49-162).
T11 construct: also called Hu IL-15
In words: Western blot.

In assay [10] the target is T12, Recombinant mutant human IL-21 (human, UniProt Q9HBE4 30-162, limits assumed).
T12 construct: also called IL-21 mutant; mutant human IL-21 protein
In words: direct ELISA. As to the method:
as §1

Assay [11] addresses T13, Human IL-21 peptide #3 (N97-C122) (human).
T13 peptide: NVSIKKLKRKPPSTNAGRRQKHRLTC
The assay is described as follows: direct ELISA. As to the method: as §1

Assay [12] deals with T14, Human IL-21 peptide #4 (C125-S153) (human).
T14 construct: also called Peptide 4 C-Term
In words: direct ELISA. As to the method: as §1

For assay [13], the target named is T2, Recombinant cynomolgus IL-21. In words: Western blot. As to the method:
as §2

Assay [14] concerns the target T15, Hu IL-21 Peptide A1751 (conjugated to ovalbumin) (human, conjugated to ovalbumin).
T15 construct: also called peptide #3 N97-C122 conjugated to ovalbumin
T15 peptide: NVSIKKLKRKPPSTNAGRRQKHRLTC
The assay is described as follows: Western blot. As for the experimental part: as §2

T2 sequence (Q9HBE4 other isoform, or with tags, fused parts or gaps limits assumed): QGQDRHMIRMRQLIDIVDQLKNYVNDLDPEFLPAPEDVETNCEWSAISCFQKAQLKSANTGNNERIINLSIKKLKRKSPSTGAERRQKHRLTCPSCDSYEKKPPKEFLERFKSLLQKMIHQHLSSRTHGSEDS
T1 sequence (Q9HBE4 30-162 limits assumed): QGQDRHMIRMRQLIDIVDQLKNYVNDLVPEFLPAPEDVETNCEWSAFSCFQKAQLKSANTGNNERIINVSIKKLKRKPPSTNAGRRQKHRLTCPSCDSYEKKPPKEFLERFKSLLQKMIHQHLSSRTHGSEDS
T9 sequence (P15248 19-144 limits assumed): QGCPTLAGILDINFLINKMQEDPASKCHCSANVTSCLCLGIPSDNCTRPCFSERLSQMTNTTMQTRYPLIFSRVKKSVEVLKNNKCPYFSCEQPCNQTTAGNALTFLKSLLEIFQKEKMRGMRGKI
T12 sequence (Q9HBE4 other isoform, or with tags, fused parts or gaps mutant limits assumed): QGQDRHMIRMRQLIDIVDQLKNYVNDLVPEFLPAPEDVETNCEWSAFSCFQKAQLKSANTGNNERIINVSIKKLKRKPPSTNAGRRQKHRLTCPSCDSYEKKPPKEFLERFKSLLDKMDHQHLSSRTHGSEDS
Chain of Recombinant rat IL-21 (A3QPB9 18-146 limits assumed): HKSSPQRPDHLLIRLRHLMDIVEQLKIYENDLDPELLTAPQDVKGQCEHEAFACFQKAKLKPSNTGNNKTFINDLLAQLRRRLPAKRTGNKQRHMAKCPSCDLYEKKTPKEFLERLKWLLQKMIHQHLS
T11 sequence (P40933 49-162 limits assumed): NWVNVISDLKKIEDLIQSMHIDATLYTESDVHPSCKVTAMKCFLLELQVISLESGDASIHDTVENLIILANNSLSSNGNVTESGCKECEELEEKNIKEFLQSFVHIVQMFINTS
T10 sequence (P60568 21-153 limits assumed): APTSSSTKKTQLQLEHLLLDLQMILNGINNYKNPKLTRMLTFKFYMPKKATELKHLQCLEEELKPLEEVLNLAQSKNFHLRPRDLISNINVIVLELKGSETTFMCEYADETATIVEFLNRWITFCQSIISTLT
T5 sequence (peptide, as listed by the source): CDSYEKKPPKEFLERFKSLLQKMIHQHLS

B1: Heterodimeric IL-21 soluble receptor (IL-21R/γc-Fc) (Fc fusion, not shown: a dimerising Fc or GST)
chain 1: not shown
chain 2: LNTTILTPNGNEDTTADFFLTTMPTDSLSVSTLPLPEVQCFVFNVEYMNCTWNSSSEPQPTNLTLHYWYKNSDNDKVQKCSHYLFSEEITSGCQLQKKEIHLYQTFVVQLQDPREPRRQATQMLKLQNLVIPWAPENLTLHKLSESQLELNWNNRFLNHCLEHLVQYRTDWDHSWTEQSVDYRHKFSLPSVDGQKRYTFRVRSRFNPLCGSAQHWSEWSHPIHWGSNTSKENPFLFALEA
Take B1: the “IC50 (pM), 24 hr STAT-Luciferase assay, Expt #2” value in the assay with Recombinant human IL-21 [1] turned out to be 1830 pM. Moreover, in the assay with Recombinant human IL-21 [2], the “% IgD-low, CD138+ Plasma Cells, antagonist:ligand 0.16:1” value was found to be 66.7%; the “% IgD-low, CD138+ Plasma Cells, antagonist:ligand 0.6:1” value was 54.2%; the “% IgD-low, CD138+ Plasma Cells, antagonist:ligand 2.5:1” value was found to be 41.7%; the “% IgD-low, CD138+ Plasma Cells, antagonist:ligand 10:1” value amounted to 23.4%. In the assay with Recombinant human IL-21 [3], the “IC50 (nM), B cell proliferation assay (anti-CD40 + 3.21 nM IL-21)” value was 3.5 nM. In the assay with Recombinant human IL-21 [4], the “IC50 (pM), STAT3-phosphorylation assay, Expt #1” value was determined as 25 pM; the “IC50 (pM), STAT3-phosphorylation assay, Expt #2” value was 102 pM; the “IC50 (pM), STAT3-phosphorylation assay, Expt #3 (96 pM IL-21)” value is 140 pM. Besides, in assay [5], the “Cyno IL-21 IC50 ([cIL-21] = 100 pM), STAT-Luciferase assay” value was 20 ng/mL and 385 pM. Also, the “Rat IL-21 IC50 ([rIL-21] = 1.08 nM), STAT-Luciferase assay” value in the assay with Recombinant rat IL-21 is 708 ng/mL and 13.4 nM. Further, the “Murine IL-21 IC50 ([mIL-21] = […] nM), STAT-Luciferase assay” value with Recombinant murine IL-21 was 426 ng/mL and 8.06 nM.

B2: Human anti-human IL-21 monoclonal antibody 362.78.1.44 (antibody, V domains shown)
VH: QVQLVESGGGVVQPGRSLRLSCAASGFTFSSYGMHWVRQAPGKGLEWVAFIWYDGSDKYYADSVKGRFTISRDNSKNTLYLQMNSLRAEDTAVYYCARDGDSSDWYGDYYFGMDVWGQGTTVTVSS
VL: not shown
notes: Hybridoma antibody, ATCC PTA-8790; also called clone 78
With B2, the binding result in assay [6] is “no binding (tested: 1 ug/ml mAb)”. Further, in assay [7], the binding result is recorded as “no binding (tested: 1 ug/ml mAb)”. Further, in the assay with Recombinant human IL-21 [2], the “% IgD-low, CD138+ Plasma Cells, antagonist:ligand 0.16:1” value amounted to 42.8%; the “% IgD-low, CD138+ Plasma Cells, antagonist:ligand 0.6:1” value was 34.1%; the “% IgD-low, CD138+ Plasma Cells, antagonist:ligand 2.5:1” value is 15.5%; the “% IgD-low, CD138+ Plasma Cells, antagonist:ligand 10:1” value is 13.7%. For the same molecule, in assay [8], the binding result was “no binding (tested: 10 or 100 ng/ml mAb)”. In assay [9], the binding result is “no binding (tested: 10 or 100 ng/ml mAb)”.

B3: Human anti-human IL-21 monoclonal antibody 362.597.3 (antibody, V domains shown)
VH: B2 VH with S31T
VL: not shown
notes: Hybridoma antibody, ATCC PTA-8786; isotype printed as IgG; also called 362.597.3.15
As for B3, the binding result is listed as “no binding (tested: 1 ug/ml mAb)” in assay [6], “no binding (tested: 1 ug/ml mAb)” in assay [7] and “no binding (tested: 10 or 100 ng/ml mAb)” in assay [9].

B4: Human anti-human IL-21 monoclonal antibody 362.75.1.1 (antibody, V domains shown)
VH: QLQLQESGPGLVKPSETLSLTCTVSGGSISSRTYRWGWIRQPPGKELEWIGSIYYRGSTFYNPSLKSRVTVSVDTSKNQFSLKLSSVTAADTAVYYCARQSGYSGYDWFDPWGQGTLVTVSS
VL: EIVLTQSPATLSLSPGERATLSCRASQSVSSFLAWYQQKPGQAPRLLIYDASNRATGIPARFSGSGSGTDFTLTISSLEPEDFAVYYCQQRSNWITFGQGTRLEIK
notes: Hybridoma antibody, ATCC PTA-8791; isotype printed only as IgG
Regarding B4, the binding result is “no binding” in the assay with Recombinant human IL-7; “no binding” in the assay with Recombinant human IL-4; “no binding” with Recombinant human IL-9; “no binding” with Recombinant human IL-2; “no binding” in the assay with Recombinant human IL-15; “no binding (tested: 1 ug/ml mAb)” in assay [10]. Besides, the binding result is “no binding (tested: 1 ug/ml mAb)” in [11]; “no binding (tested: 1 ug/ml mAb)” in assay [6]; “no binding (tested: 1 ug/ml mAb)” in assay [7]; “binds” in assay [12]; “binds” in [13]; “binds” in assay [8]. The binding result in [9] and in [14] was “no binding (tested: 10 or 100 ng/ml mAb)” each time.

B5: Human anti-human IL-21 monoclonal antibody 366.552.11 (antibody, V domains shown)
VH: QVQLQESGPGLVKPSETLSLTCTVSGGSISSDFWGWIRQPPGKGLEWIGYISSRGSTNYNPSLKRRVTISVDTSRNQFSLKLSSVTAADTAVYYCARSAGVTDFDFWGQGTLVTVSS
VL: DIQMTQSPSSVSASVGDRVTITCRASQGISSWLAWYQHKPGKAPKLLIYVASSLQSGVPSRFSGSGSGTDFTLTISSLQPEDFATYYCQQANSFPLTFGGGTKVEIK
notes: Hybridoma antibody, ATCC PTA-8787; isotype printed as IgG; also called 366.552.11.31
Turning to B5, the “IC50 (pM), 24 hr STAT-Luciferase assay, Expt #1” value in the assay with Recombinant human IL-21 [1] was determined as 2400 pM. Also, the binding result with Recombinant human IL-7 is “no binding”; with Recombinant human IL-4, “no binding”; with Recombinant human IL-9, “no binding”; with Recombinant human IL-2, “no binding”; with Recombinant human IL-15, “no binding”; in [10] it was “no binding (tested: 1 ug/ml mAb)”. The binding result is recorded as “no binding (tested: 1 ug/ml mAb)” in assay [11]; “no binding (tested: 1 ug/ml mAb)” in assay [6]; “no binding (tested: 1 ug/ml mAb)” in assay [7]; “no binding (tested: 10 or 100 ng/ml mAb)” in assay [9]; “no binding (tested: 10 or 100 ng/ml mAb)” in assay [14]. In addition, the “IC50 (nM), B cell proliferation assay (anti-CD40 + 3.21 nM IL-21)” value with Recombinant human IL-21 [3] amounted to 4.75 nM. Further, the “IC50 (pM), STAT3-phosphorylation assay, Expt #1” value with Recombinant human IL-21 [4] is 59 pM. Moreover, in assay [5], the “Cyno IL-21 IC50 ([cIL-21] = 100 pM), STAT-Luciferase assay” value was 23 ng/mL and 156 pM.
